Data from the nanobody polyreactivity screen of Harvey et al. (2022).

test: yeast display, Sf9 membrane polyspecificity reagent, FACS + sequencing; frameworks hold sequencing errors
How it was run: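 Galactose-induced (36–48 hours) yeast carrying a synthetic nanobody display library were exposed to 10% biotinylated, detergent-solubilized Sf9 membrane reagent at 4 °C for 1 hour. FACS followed streptavidin microbead enrichment, using low and high (top ~1%) gates for expression (anti-HA) and reagent binding (streptavidin). Colony PCR, MiSeq 2 × 250 sequencing and CDR-length filtering followed. Labels for polyreactivity reflect the gate of origin.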

Row | Sequence | polyreactivity (PSR sort gate)
1 | QVQLVESGGGLVQAGGSLRLSCAASGNIFYLYAMGWYRQAPGKERELVARITIGGSTYYADSVKGRFTISRDNAKNTVYLQMNSLKPEDTAVYYCAARGPYYRYYYWGQGTQVTVSS | high polyreactivity
2 | QVQLVESGGGLVQAGGSLRLSCAASGRIFKYYDMGWYRQAPGKERELVARISSGGGRTYYADSVKGRFKISRDNAKNTVYLQMNSLKPEDTAVYYCAADPPASYHTWYGYWGQGTQVTVSS | high polyreactivity
3 | QVQLVESGGGIVQAGGSLRLSCAASGSTFTANAMGWYRQAPGKERELVAAISRSGGSTYYADSVKGRFTISRDNAKNTVYLQMNSLKPEDTAVYYCAAESPLFSPPDGEDYWGQGTQVTVSS | low polyreactivity
4 | QVQLVESGGGLVQAGGSLRLSCAASGRVFSTNAMGWYRQAPGKERELVAGINSGGSTNYADSVKGRFTISRDNAKNTVSLQMNSLKPEDTAVYYCNATLRVESWYVHYGVDYDYWGQGTQVTVSS | low polyreactivity
5 | QVQLEESGGGVVQAGGSLRLSCAASGRIFDRYDMARYRQAPGKERELVASISSGGSTYYADSVKGRFTISRVTAKNPVYLQMNSLKPEDTAVYYCNAEARSRRYRYDYWGQGTQVTVSS | high polyreactivity
6 | QVQLVESGGGLVQAGGSLRLSCAASGRTFSGYAMGWYRQAPGKERELVAGINWSGDSTYYADSVKGRFTISRDNAKNTVYLQMNSLKPEDTAVYYCAASRSGTYDWGQGTQVTVSS | high polyreactivity
7 | QVQLVESGGGLVQAGGSLRLSCAASGFTFHTYAMGWYRQAPGKERELVAAIDSSGGITYYADSVKGRFTISRDTAKNTVYLQMNSLKPEDTAVYYCAAVFLLFGFEWSYDYWGQGTQVTVSS | low polyreactivity
8 | QVQLVETGGGLVQAGGSLRLSCAASGFIFGYNARGWYRKAPGQVRELVAAISSGGRTYYADSVKGRFTISRDNAKHTVYLQMNSLKPQDTAVYYCSVDPHLYALRGAVYYWGQGTQVTVSS | low polyreactivity
9 | QVQLVESGGGLVQAGGSLRLICAASGNTFSAYGMGYYRQAAGKERELVAGITNGGSTNYADSVKGRFTISRDNAMNTVYLQMNSLKPEDTAVYYCATVQYVEPPTPVDYWGQGTQVTVSS | low polyreactivity
10 | QVQLVESGGGLVQAGGSLRLSCAASGIIFGRYAMGWYRQAPGKERELVAAINGSGGSTYYADSVKGRFTISRDNAKNTVYLQMNSLKPEDTAVYYCAVVYYGSIFVLEYDYWGQGTQVTVSS | high polyreactivity
11 | QVHLVESGGGLVQAGGSLRLSCAASGRIYAFYAMGWYRQAPGKERELVAAISSGGNTKYADSVKGRFTISRDNAKNTVYLQMNSLKPEYTAVFYCDARTPWYNKGDYWGLGTQVTVSS | low polyreactivity
12 | QVQLVESGGGLDQAGGSLRLSCAASGFIFPAYAMGWYRQAPGKERELVAAITTRGGSTYYADSVKGRFTISRDNAKNTVYLQMNSLKPEDTAVYYCAAYAVWYRYYYWGQGTQVTVSS | low polyreactivity
13 | QVQLVESGGGLVQAGGSLRLSCAAYGRTFRIYAMGWYRQAPGKERELVATITWRAGSTYYADSVKGRFTISRDNAKYTVYLQMNSLKPEDTAVYYCAADVSAYSGGYWLDYWGQGTQVTVSS | high polyreactivity
14 | QVQLVESGGGLVQAGGSLRLSCAASGSIYVNAMGWYRQAPGKERELVAVISKSGGSTYYADSVKGRFTISRDNAKNTVYLQMNSLKPEDTAVYYCATRGVSPSRPGYYWGQGTQVTVSS | high polyreactivity
15 | QVQLVESGGCLVQAGGSLRLSCAASGRIFQGYAMAWYRQAPGKEREFVAAITLSGGSTYYADSVKGRFTISRDNAKNTVYLQMNSLKPEDTAVYYCNAYYPDEPSLDDYWGQGTQVTVSS | low polyreactivity
16 | QVQLVESGGGLVQAGGSLRLSCAASGFIFRRYAMGWYRQAPGKERELVASISWSGGSTYYADSVKGRFTISRDNAKNTVYLQMNSLKPEDTAVYYCAKGGYYSRYYSYGYWGQGTQVTVSS | high polyreactivity

Row | Sequence | polyreactivity (PSR sort gate)
17 | QVQLVESGGGLGQAGGSLRLSCAASGRIFAGYAMGWYRQAPGKERELVAAISWSGSSTHYADSVKGRFTISRDNAKNTVYFQMNSLKPEDTAVYYCAADLKDTRLFPWFFEYDYWGQGTQVTVSS | low polyreactivity
18 | QDQLVESGGGLVQGGGSLRLSCAGSGFTFSRYAMGSYRQAPGKERELVAAITRRRGRTYYADSVKGRFTISLDNAKNTVYFKMNSLYPEDTAVYYCNTDAYRLGYDYWGQGTQVTVSS | high polyreactivity
19 | QVQLVESGGGLVQAGGSLRLSCAASGNHLRSLCLGWYRQAPGKERELVAAITSSGASTYYADSVKGRFTISRDNAKNTVYLQMNSLKPEDTAVYYCAAYLFRRYDYWGQGTQVTVSS | low polyreactivity
20 | QVHLVESGGGLVQAGGSLRLSCDASGSIIDGYGMGWYRQAPGKERELVASITWNDGSTYYADSVKGRFTISRDNAKNTVYLQMNSLKPEDTAVYYCAADQWGYEYDYWGQGTQVTVSS | low polyreactivity
21 | QVQLVESGGGLVQAGGSLRLSCAASGTIFYINAMGWYRQAPGKERELVAAIRSGGSTNYADSVKGRFTISRDNAKNTVYLQMNSLKPEDTAVYYCNARSRSYVPYYYWGQGTQVTVSS | high polyreactivity
22 | QVQLVESGGGLVQAGGSLRLSFAASGSIFNYNAMGWYRQAPGKERELVAAITYADSVKGRFTISRDNAKNTVYLQMNSLKPEDTAVYHCNTHYVPSFRFDYWGQGTQVTVSS | low polyreactivity
23 | KVQLVETGGGLVQAGGSLRLSCAASGRTFWGYAKGWYRQAPGKEREFVAAISCGGRTNYADSVKGRFTISRDNAKNTVYLQLNSLKPEDSAVYYCATVSGYGYYYWGQGTQVTVSS | low polyreactivity
24 | QVQLLESGGGLVLAGGRIRLSCAASGRTYRYTMGWNRQSPGKERELVAAISRSGGSTYYADSVKGRFTISRDNAKNSFYLQMNSLKPEDTAVYYCAKVIYRYNETYDYWGQGTQVTVSS | high polyreactivity
25 | QVKLVESGAGLVQAGGSLRLSCAASGITFYWYAIGWYRPAPGKEMELVADITSSGSSTYYADSVKGRFTISRDNAKNTVYLQMNSLKPEDTAVYYCNARPGRRSLRSRTYDYWGQGTQVTVSS | high polyreactivity
26 | QVQLVESGGGLVQAGGSLRLSCAASGSNFAYYTMGWYRPAPGKERELVAAITSGGSTYYADSVKGRFTISRDNAKNTVYLQMNSLKPEDTAVYYCATRHSVGRYGMDSWGQGTQVTVSS | high polyreactivity
27 | QVQLVESGGGLVQAGGSLRLSCAASGFIFSQYTMGWYRQAPGKERELVAAISFSDSSTFYADSVKGRFTISRDNAKNTVYLQMNSLKPEDTAVYYCAAEWGYRQRYFYATGGYWGQGTQVTVSS | low polyreactivity
28 | QVQLVESGGGLVQAGGSLRLSCAASGITFPVYTMGWYRQAPGKERALVAAISRSGGRTYYADSVKGRFTISSDNAKNTVYLQMNSLKPEDTAVYYCAVRQATVTGGGYWGQGTQVTVSS | high polyreactivity
29 | QVQLVESGAGLVQAGGSLRLSCAASGSISRYYAMGWYRQAPGKERELVAAISVSGGSTYYADSVKGRFTISRDNAKNTVYLQMNSLKPEHTAVYYCKKVRLSDYDWGQGTQVTVSS | high polyreactivity
30 | QVQLVESGGRLVQAGGSLRLSCAASGSILTYYTMGWYRQAPGKERELVARISWSGSRTYYADSVKGRFTISRDNAKNTVYLQMNSLKPEDTAVYYCAAKANWYANYDYWGQGTQVTVSS | high polyreactivity
31 | QVQLVESGGGLVQAGGSLRLSCAASGSIFIWNAMGWYRQAPGKERELVAAISFSGGSTYYADSVKGRFTISRDNAKNTVYLQMNSLKPEDTAVYYCAADSYSGRYYWWEYDYWGQGTQVTVSS | low polyreactivity
32 | QLQHVETGGGLVQAGGSLRLSCAASGRIFIRNHMGWYRQAPGKERELVAVITRSGGRTYYADSVKGRFTISRDNANNTVYLQMNRVKPEDTAVYYCAKRQAFKQATYDYWGQGTQVTVSS | low polyreactivity
